The target in experiment [1] is T1, human MS4A4A ECL1 peptide (amino acid residues 86-98) (human).
T1 construct: synthetic peptide
T1 peptide: CMASNTYGSNPIS
Put plainly: peptide ELISA. As for the experimental part: (§1) Briefly, 96-well polystyrene plates were coated with 2 or 10 m/ml of synthetic free or BSA-conjugated peptides in coating buffer (0.05M carbonate buffer, pH9.6, Millipore Sigma Cat#C3041) overnight at 4° C. Coated plates were then blocked with ELISA diluent (PBS+0.5% BSA+0.05% Tween20) for 1-hour, washed 3×300 μL in PBST (PBS+0.05% Tween20, Thermo Cat#28352), and then the antibodies were added to the plate (50 μl/well). After 30 mins incubation (room temperature, with shaking), the plates were washed 3×300 μL in PBST. […] After a final set of washes (3×300 μL in PBST), 50 μL of TMB substrate (BioFx Cat#TMBW-1000-01) was added and the reaction was then quenched after 5-10 mins with 50 μL of stop solution (BioFx Cat#BSTP-1000-01). The quenched reaction wells were detected for absorbance at 650nm with a BioTek Synergy Microplate Reader using GENS 2.04 software.

Experiment [2] deals with T2, human MS4A4A (human, UniProt Q96JQ5 1-239). Put plainly: FACS, K562 cells, supernatant. As for the experimental part: (§2) Positive clones identified in Example 22 above were expanded and then rescreened for specificity against U937, K562, and/or 300.19 cells stably overexpressing human MS4A4A or cyno MS4A4A and parental U937, K562, and/or 300.19 cells. These experiments were performed using supernatants from hybridoma clones which had undergone further expansion after initial selection. Briefly, stably transfected cells were labeled with LIVE/DEAD Fixable Aqua Dead Cell Stain Kit (ThermoFisher Scientific Cat#L34957) on ice for 30 minutes. […] 2×10⁵ cells were aliquoted per well in 96-well U-bottom plates and incubated with 50 μl of culture supernatant on ice for 30 minutes. […] Following this secondary incubation, the cells were again washed twice with ice-cold FACS buffer and resuspended in a final volume of 200 μl of FACS buffer. Analysis was performed on a FACS Canto system (BD Biosciences), with gates drawn to exclude dead (Aqua-positive) cells.
(§3) The APC ratio was calculated for each antibody as follows. […] For cell lines overexpressing human MS4A4A (h4A) or cyno MS4A4A (cy4A), the ration was calculated by comparing the binding measured to the binding observed on the corresponding parental cell lines.

The target of experiment [3] is T3, human MS4A4A ECL2 peptide (amino acid residues 159-179), free (human).
T3 construct: synthetic peptide; also called huMS4A4A-ELC2 free-peptide
T3 peptide: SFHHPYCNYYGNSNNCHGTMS
Briefly: peptide ELISA, supernatant.

Experiment [4] concerns the target T4, cynomolgus (cyno) MS4A4A (cynomolgus).
T4 construct: also called cy4A; Cyno 4A
Briefly: FACS, 300.19 cells, supernatant. As for the experimental part: as §2, §3

In experiment [5] the target is T5, BSA-conjugated human MS4A4A ECL2 peptide (amino acid residues 159-179) (human, conjugated to BSA (site not stated)).
T5 construct: also called MS4A4A-ECL2 BSA conjugated peptide; BSA-MS4A4A-ELC2 peptide
T5 peptide: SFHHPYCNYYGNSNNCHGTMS
Put plainly: ELISA, supernatant. As for the experimental part: as §1, with “1-10 μg/ml” for “2 or 10 m/ml”, “C3041)” for “Cat#C3041)”, “[…]).” for “μl/well).”, “TMBW-1000-01)” for “Cat#TMBW-1000-01)”, “BSTP-1000-01).” for “Cat#BSTP-1000-01).”, “650 nm” for “650nm”

The target of experiment [6] is T1, human MS4A4A ECL1 peptide (amino acid …). Briefly: ELISA, hybridoma supernatant. The protocol: as §1, with “1-10 μg/ml” for “2 or 10 m/ml”, “C3041)” for “Cat#C3041)”, “[…]).” for “μl/well).”, “TMBW-1000-01)” for “Cat#TMBW-1000-01)”, “BSTP-1000-01).” for “Cat#BSTP-1000-01).”, “650 nm” for “650nm”
Experiment [7] deals with T2, human MS4A4A. Briefly: FACS, HEK293, supernatant. The protocol: (§4) Positive clones identified above were expanded and then rescreened for specificity against HEK293 cells overexpressing human MS4A4A or cyno MS4A4A and parental HEK293 cells. These experiments were performed using supernatants from hybridoma clones which had undergone further expansion after initial selection. Briefly, previously prepared, cryopreserved transiently-transfected cells were labeled with LIVE/DEAD Fixable Aqua Dead Cell Stain Kit (ThermoFisher Scientific L34957) on ice for 30 minutes. After a wash with PBS, 2×10⁵ cells were aliquoted per well in 96-well U-bottom plates and incubated with 50 μl of culture supernatant on ice for 30 minutes. […] Following this secondary incubation, the cells were again washed twice with ice-cold FACS buffer and resuspended in a final volume of 200 μl of FACS buffer. Analysis was performed on a FACS Canto system (BD Biosciences), with sort gates drawn to exclude dead (Aqua-positive) cells. Positive clones (fold change of 1.8 or greater) were carried forward for further testing.

Experiment [8] addresses T4, cynomolgus (cyno) MS4A4A. Put plainly: FACS, HEK293, supernatant. As for the experimental part:
as §4

In experiment [9] the target is T6, human MS4A6A ECL1 peptide (amino acid residues 68-85) (human).
T6 peptide: SASFSPNFTQVTSTLLNS
Put plainly: array SPR. The protocol: (§5) Binding kinetic characterization of the anti-MS4A4A antibodies to MS4A4A ECL1 and ECL2 and to MS4A6A ECL1 and ECL2 peptides was performed by Carterra (South San Francisco, Calif.) using a proprietary array Surface Plasmon Resonance (SPR) instrument (MX-96) as follows. Antibodies were captured onto a CMD500D chip (Xantec # SPMX CMD500D) using the Continous Flow Microspotter (CFM). First, the chip was activated with 100 mM MES pH 5.5, 100 μL EDC (133 mM final), 100 μL of S-NHS (33.3 mM final), for 7 minutes. […] Anti-MS4A4A hydridoma supernatant or purified anti-MS4A4A antibodies were diluted in HBS-EP+ buffer (Teknova Cat # H8022) and then printed as duplicates with a 20 minute and a 5-minute print from the same sample solution.
(§6) These were then injected on the chip for five minutes, followed by a seven-minute dissociation period at 8 uL per second in a non-regenerative kinetic series. Duplicate measurements for each anti-MS4A4A antibody were taken to ensure reproducibility. Association rates (Kon) and dissociation rates (Koff) were calculated using a single one-to-one Langmuir binding model. The equilibrium dissociation constant (KD) was calculated as the ration of Koff/Kon.

For experiment [10], the target named is T7, human MS4A6A ECL2 peptide (amino acid residues 138-185) (human).
T7 peptide: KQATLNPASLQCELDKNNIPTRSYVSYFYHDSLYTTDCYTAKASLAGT
Put plainly: array SPR. As for the experimental part:
as §5, §6

Numbering of substitutions follows the chain as printed.

B1: anti-MS4A4A antibody 4A-201 (murine) (antibody, V domains shown)
VH: QVQLRESGPGLVAPSQSLSITCTVSGFSLSSFGVTWVRQPPGKGLEWLGIIWGDGSTNYHSALISRLSISKDNSKSQVFLKLNRLQTDDTATYYCAKRDYDGREDVMGYWGQGTSVTVSS
VL: DIVMTQSQKFMSTSVGDRVSITCKATQNVRTAVAWYQQKPGQSPKPLIYLASNRHTGVPDRFTGSGSGTDFTLTITNVQSEDLADYFCLQHWSYPLTFGAGTKLEMK
notes: murine hybridoma antibody
Turning to B1, the binding result in [1] and in [3] was “no binding” in each case. Further, the “fold increase in MFI” value with human MS4A4A [2] and with cynomolgus (cyno) MS4A4A [4] was over 2 fold each time.

B2: anti-MS4A4A antibody 4A-225 (antibody, V domains shown)
VH: B1 VH with R5K, S30T, T35N, V37F, Y59F, I64M, E104D
VL: B1 VL with F10I, T26S, N28T, P46A, T76S
notes: murine hybridoma antibody
Consider B2, for which the binding result in experiment [1] and in experiment [3] was “no binding” each time. For the same molecule, the “fold increase in MFI” value with human MS4A4A [2] and in the experiment with cynomolgus (cyno) MS4A4A [4] was over 2 fold each time.

B3: anti-MS4A4A antibody 4A-210 (murine) (antibody, V domains shown)
VH: DVKLVESGGGLVKPGGSLKLSCAASGFTFGTYTMSWVRQTPEKRLEWVATISSGGSYTFYPDSVKGRFTISRDNAKNTLYLQMSSLKSEDTAMYYCTRDNTTGDRGWYFDVWGAGTTVTVSS
VL: DIVLTQSPVSLAVSLGQRATISCQASESVSFAGKSLMHWFQQKPGQPPKLLIYRASNLESGVPARFSGSGSESDFTLTIDPVEEDDATMYYCMQSMEDPRTFGGGTKLEIK
notes: murine hybridoma antibody
Regarding B3, the binding result in experiment [1] and in experiment [3] was “no binding” each time.

B4: anti-MS4A4A antibody 4A-207 (murine) (antibody, V domains shown)
VH: EVNLEESGGGLVQPGGSMKLSCVASGFTFNNYWMNWVRQSPEKGLEWVAEIRLKSNNYATHYAESVKGRFTISRDDSKSSVYLQMNNLRPEDTAIYYCTTDPPMDYSGQGTPVTVSS
VL: QIVLTQSPAFMSASPGEKVTITCSASSSVSYMHWFQQKPGTSPKLWIYSTSNLVSGVPDRFSGSGSGTSYSLTISRMEAEYAATYYCHQRTSYPWTFGGGTKLEIK
notes: murine hybridoma antibody
B4: the “fold increase in MFI” value with human MS4A4A [2] and with cynomolgus (cyno) MS4A4A [4] was over 2 fold each time.

B5: anti-MS4A4A antibody 4A-2 (antibody, V domains shown)
VH: QIQLVQSGPELKKPGETVKISCKASGYTFVDYEMNWVKQAPGKGLEWLGWINTYTGEPTYADDFQGRFAFSLVTSVSTAYLQINNLKHEDMATYLCTRNYYYGNGDVMDYWGQGTSVTVSS
VL: B4 VL with F10I, M32I, V54A, D59A, Y81D, H88Q, S92G, Y93F, W95L, K102Q
notes: murine hybridoma antibody
As for B5, the binding result in [5] is “binds”; in [6] it was “no binding”; in [9], “no binding (tested: 2000 nM)”; in experiment [10], “no binding (tested: 2000 nM)”. In the experiment with human MS4A4A [7], the “Human 4A:parental cell ratio” value worked out at 20.2 ratio. Moreover, the “Cyno 4A:parental cell ratio” value with cynomolgus (cyno) MS4A4A [8] turned out to be 9.63 ratio.

B6: anti-MS4A4A antibody 4A-209 (murine) (antibody, V domains shown)
VH: EVKLLESGGGLVQPGGSLKLSCAASGFDFSRYWMSWVRQAPGKGLEWIGEIKSDSSTINYTPSLKDKFIISRDNAKNTLYLQMSKVRSEDTALYYCARRGFYDYDAWFAYWGQGTLVTVSS
VL: QIVLTQSPTLMSASPGEKVTMTCSASSSVTYMYWYQQKPRSSPKPWIYLTSNRASGVPTRFSGSGSGTSHSLTISYMEAEDAATYYCQQWSSNPPTFGAGTKLELR
notes: murine hybridoma antibody
Consider B6, for which the binding result in experiment [1] and in experiment [3] was “no binding” throughout. Further, the “fold increase in MFI” value with human MS4A4A [2] and with cynomolgus (cyno) MS4A4A [4] was over 2 fold each time.

B7: anti-MS4A4A antibody 4A-203 (murine) (antibody, V domains shown)
VH: DVKLVESGGGLVKLGGSLKLSCAASGFTFSSFYMSWVRQTPEKRLELVAAINSNGGSTYYPDTVKGRFTISRDNAKNTLYLQMSSLKSEDTALYYCARQNYYGSSSYWYFDVWGAGTTVTVSS
VL: EIVLTQSPALMAASPGEKVTITCSVSSSISSSNLHWYRQKSETSPKPWIYGTSNLASGVPVRFSGSGSGTSYSLTISSMEAEDAATYYCQQWSRYPLTFGAGTKLELK
notes: murine hybridoma antibody
In the case of B7, the binding result in experiment [1] and in [3] was “no binding” each time.

B8: anti-MS4A4A antibody 4A-19 (antibody, V domains shown)
VH: QVQLQQSGAELARPGASVKLSCKASGYSFIDYGISWVKQRTGQGLEWIGEIYPRSGNTYYNEKFKGKATLTADKSSSTAYMELRSLTSEDSAVYFCARKGLLRDFDYWGQGTTLTVSS
VL: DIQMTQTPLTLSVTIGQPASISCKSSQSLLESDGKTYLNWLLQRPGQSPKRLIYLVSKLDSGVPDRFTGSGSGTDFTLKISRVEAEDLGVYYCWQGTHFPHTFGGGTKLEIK
notes: murine hybridoma antibody
As to B8, the binding result in experiment [5] is recorded as “binds”; in [6] it was “no binding”; in [9], “no binding (tested: 2000 nM)”; in experiment [10], “no binding (tested: 2000 nM)”. For the same molecule, the “Human 4A:parental cell ratio” value with human MS4A4A [7] amounted to 1.86 ratio. In addition, the “Cyno 4A:parental cell ratio” value with cynomolgus (cyno) MS4A4A [8] was found to be 1.51 ratio.

The record behind these values is patent publication US20230126400A1 (Alector, published 2023).
